Data reported in paper PMC9464890, “Exosite binding modulates the specificity of the immunomodulatory enzyme ScpA, a C5a inactivating bacterial protease” (Computational and Structural Biotechnology Journal, 2022).
Substitutions are numbered along the chain they refer to.

Columns and labels:
ScpA_(S512A,D783A) = target: T1, ScpA_(S512A,D783A) (Streptococcus pyogenes, UniProt P15926 31-1032, S512A | D783A); experiment: SPR; BIAcore X100, NTA sensor chip with about 20-25 RU of immobilised His-tagged C5a form (ligand), ScpA form flowed as ligate at 30 uL/min, 25 °C, 10 mM Hepes-KOH pH 7.4, 150 mM NaCl, 0.005% Tween 20, 50 uM EDTA; global fit, 1:1 Langmuir model with drifting baseline; triplicate; details: both partners purified
T1 construct: Made by QuikChange II from pGEX ScpA(31-1032); The active form D783A (S512 intact) was used for activity assays and for the crystal structure 7YZX; also called D783A_(S512A); source: details in Supplemental Information SI1 and SI2
T1 sequence (looked up): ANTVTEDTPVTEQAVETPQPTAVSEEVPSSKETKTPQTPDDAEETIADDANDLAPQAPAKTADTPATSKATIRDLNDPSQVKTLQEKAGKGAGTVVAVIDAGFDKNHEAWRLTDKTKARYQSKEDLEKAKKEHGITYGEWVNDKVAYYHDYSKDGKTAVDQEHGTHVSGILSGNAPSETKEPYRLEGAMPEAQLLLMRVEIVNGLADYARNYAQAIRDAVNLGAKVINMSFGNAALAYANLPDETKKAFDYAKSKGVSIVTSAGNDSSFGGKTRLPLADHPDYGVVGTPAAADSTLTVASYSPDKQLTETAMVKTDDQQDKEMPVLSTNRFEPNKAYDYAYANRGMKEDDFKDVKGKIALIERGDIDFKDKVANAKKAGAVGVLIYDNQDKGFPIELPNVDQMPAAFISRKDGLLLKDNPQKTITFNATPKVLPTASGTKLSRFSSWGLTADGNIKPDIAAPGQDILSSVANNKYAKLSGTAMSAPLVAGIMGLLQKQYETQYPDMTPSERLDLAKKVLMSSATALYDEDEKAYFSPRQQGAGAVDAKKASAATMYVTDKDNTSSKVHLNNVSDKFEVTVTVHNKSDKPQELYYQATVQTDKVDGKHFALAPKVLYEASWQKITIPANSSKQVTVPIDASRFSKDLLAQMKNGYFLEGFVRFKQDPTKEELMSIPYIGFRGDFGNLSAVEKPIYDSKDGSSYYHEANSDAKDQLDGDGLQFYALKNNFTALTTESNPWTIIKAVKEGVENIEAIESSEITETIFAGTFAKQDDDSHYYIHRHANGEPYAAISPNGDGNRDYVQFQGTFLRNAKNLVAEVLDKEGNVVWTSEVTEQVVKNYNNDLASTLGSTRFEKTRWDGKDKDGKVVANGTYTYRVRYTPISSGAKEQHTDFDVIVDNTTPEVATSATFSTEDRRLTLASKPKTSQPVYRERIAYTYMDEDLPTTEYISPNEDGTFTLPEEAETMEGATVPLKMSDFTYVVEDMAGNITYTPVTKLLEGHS

ScpA_(S512A,E864A) = target: T2, ScpA_(S512A,E864A) (Streptococcus pyogenes, UniProt P15926 31-1032, S512A | E864A); experiment: as above; details: both partners purified
T2 construct: Made by QuikChange II from pGEX ScpA(31-1032); also called E864A_(S512A); source: details in Supplemental Information SI1 and SI2
T2 sequence (looked up): T1 sequence (looked up) with A753D, E834A

B1: Recombinant human C5a (rhC5a) (natural protein, UniProt P01031 678-751, looked up)
chain: TLQKKIEEIAAKYKHSVVKKCCYDGACVNNDETCEQRAARISLGPRCIKAFTECCVVASQLRANISHKDMQLGR
notes: human complement C5a anaphylatoxin, residues 1-74 (core 1-67 and tail 68-74); also called full length rhC5a; substrate; not shown: His6, N-terminal, kept
B1 showed a Kd (ScpA_(S512A,D783A)) of 314 nM, a koff (ScpA_(S512A,D783A)) of 0.0237 s⁻¹ and a kon (ScpA_(S512A,D783A)) of 75400 M⁻¹ s⁻¹. It also gave a Kd (ScpA_(S512A,E864A)) of 25 nM, a koff (ScpA_(S512A,E864A)) of 0.0064 s⁻¹ and a kon (ScpA_(S512A,E864A)) of 260000 M⁻¹ s⁻¹.
